B1: Hairpin Ribozyme (parent)
chain: GUCCUCUUUCACGUGCGCGUGAAAGAGAGAAGUGAACCAGAGAAACACACGUUGUGGUAUAUUACCUGGUA

Variants of: B1
Assay: self-cleavage, relative activity (ratio to wild type); higher = more cleavage; co-transcriptional

Variant	self-cleavage
U9G G34U	1.15
U9G G17C	0.379
U9C C16A	0.761
U9C A35C	0.602
U9C A35G	0.688
U9C G25U	0.386
U9C A28C	0.394
U9G A30C	0.206
U9G A30U	0.0546
U9C G34U	1.09
U9A U14A	0.594
U9G A26U	0.477
U9C C38G	0.145
U9G C65A	0.609
U9A G56U	0.178
U9A U20G	0.583
U9A U20A	0.605
U9G G68A	0.247
C10A A49U	0.172
U9C C10G	0.582
U9C U60A	0.769
U9G U58A	0.549
U9G G54C	0.341
U9G G54U	0.52

Variant	self-cleavage
U9C U20A	0.692
U9C U20C	0.885
C10A A47C	0.334
U9C U63C	0.133
U9A U60C	0.993
U9C U33G	0.154
U9C U33A	0.0961
U9G U67G	0.279
U9G G56A	0.18
U9G G56C	0.0826
U9A U67C	0.174
U9G C66U	0.429
U9C A26G	0.747
U9C A26C	0.426
U9G C18G	0.801
U9G U53A	0.672
U9G U53C	0.736
C10A A71C	1.16
C10A A71G	0.915
U9C A36C	0.491
U9G C12U	0.664
U9G A41C	0.693
U9C U62C	0.143
U9C A44G	0.19

Variant	self-cleavage
U9G A39U	0.158
U9G A39G	0.206
U9A U55A	0.225
U9A U55C	0.179
U9G G19U	0.546
U9C A11G	0.692
U9A G54U	0.39
U9C U70A	0.669
U9G G51C	0.614
U9G U62C	0.323
C10A C16A	0.907
C10A C16G	0.527
U9G A47U	0.0873
U9G A47C	0.406
U9C A30G	0.336
U9C A49G	0.21
U9C A49C	0.204
U9A U53A	0.768
C10A A39C	0.463
C10A A59C	0.192
C10A A59G	0.149
U9G G27A	0.332
U9G G27U	0.171
U9G A31C	0.0438

Variant	self-cleavage
U9G A31G	0.549
U9C U14A	0.781
U9C G32C	0.0478
U9C G32A	0.125
U9G A61C	0.115
U9C G42A	0.081
U9C G42U	0.34
U9A G57A	0.141
U9A G57U	0.182
C10A C18G	0.791
C10A C18A	0.708
U9A U70A	0.581
U9A U70C	0.719
U9C C48G	0.145
U9C C48U	0.0794
U9G A23G	0.72
C10A A11U	0.41
U9C G68C	0.108
U9G G13A	0.536
U9G G13U	0.678
C10A A31G	0.533
C10A A31U	0.112
C10A A26G	0.663
U9C A43G	0.0922

Variant	self-cleavage
U9C A43C	0.102
U9C G40A	0.313
U9G A64U	0.164
U9G G21A	0.554
U9C G56U	0.0494
U9C G56C	0.158
C10A A28U	0.483
C10A A28G	1.09
U9C U58G	0.729
U9G U55G	0.0748
U9C G15U	0.879
U9G A11C	0.416
U9C U55A	0.299
U9C U55C	0.134
U9C G17C	0.647
U9C G17A	0.805
U9C C65G	0.159
U9C C65A	0.945
U9A G51C	0.673
U9A G51A	0.688
C10A A41G	0.694
U9C U52G	0.74
U9C U52C	0.6
U9C C18G	0.56

Variant	self-cleavage
C10A A64C	0.185
U9C C66G	0.202
U9C U53A	1.19
U9G U14A	0.612
U9C G54U	0.539
U9C G57U	0.185
U9G U70A	0.812
U9G U70C	0.72
U9G U63C	0.094
U9G U63G	0.206
U9G A43C	0.0922
U9C U67A	0.174
C10A	0.722
U9C A45U	0.0912
U9C A45C	0.121
U9C C46G	0.167
U9G A59G	0.241
U9C G29U	0.179
U9C G29C	0.1
U9G C37U	0.5
U9G G57U	0.379
U9C A47U	0.178
U9G A44G	0.129
U9G A44C	0.0667

Variant	self-cleavage
U9C A41U	0.966
U9C G19C	0.485
U9C G19U	0.617
U9C G69U	0.256
U9C A71G	0.933
U9C A71C	1.24
U9G U20A	0.531
U9G U20C	0.682
C10A A44C	0.141
C10A A44U	0.139
U9G A35U	0.631
C10A A43G	0.132
C10A A43C	0.0904
U9G G42A	0.109
U9G G42C	0.239
U9G U33G	0.145
U9A U62A	0.174
U9G G32A	0.128
U9C A23G	0.814
U9C A23C	0.862
U9G C10G	0.375
U9G A24C	0.318
U9C A61C	0.183
